# Test results: patent US20140286957A1 (Teva, published 2014)
# Changes are numbered by the printed parent chain.
# B1: 401.11.38 (antibody, name in Kabat numbering, V domains shown)
# VH: QVQLVGSGGGLVKPGRSLRLSCAASGFTFDDYAMHWVRQAPGKGLEWVATIIWNSAIIGYADSVKGRFIVSRDNAKNSLYLQMNSLRAEDMALYYCAKSMCSSSGCPDGYFDSWGQGTLVTVSS
# VL: DIQMTQSPSSVSASVGDRVTITCRASQHISSWLAWYQQKPGKAPNLLIYAASSLQSGVSSRFSGSGSGTDFTLTISSLQPEDFATYYCQQANRFPLTFGGGTKLEIKR
# B2: 401.11.50 (antibody, name in Kabat numbering, V domains shown)
# VH: B1 VH with S99D, M100G
# VL: B1 VL
# B3: 401.11.46 (antibody, name in Kabat numbering, V domains shown)
# VH: B1 VH with S99D, M100F
# VL: B1 VL
# B4: 401.11.61 (antibody, name in Kabat numbering, V domains shown)
# VH: B1 VH with S99D, S102T
# VL: B1 VL
# B5: 401.11.49 (antibody, name in Kabat numbering, V domains shown)
# VH: B1 VH with S99D, M100S
# VL: B1 VL
# B6: 401.11.68 (antibody, name in Kabat numbering, V domains shown)
# VH: B1 VH with S99D, S102G
# VL: B1 VL
# B7: 401.11.67 (antibody, name in Kabat numbering, V domains shown)
# VH: B1 VH with S99D, S102Y
# VL: B1 VL
# B8: 401.11.44 (antibody, name in Kabat numbering, V domains shown)
# VH: B1 VH with S99D, M100K
# VL: B1 VL
# B9: 401.11.66 (antibody, name in Kabat numbering, V domains shown)
# VH: B1 VH with S99D, S102R
# VL: B1 VL
# B10: 401.11.65 (antibody, name in Kabat numbering, V domains shown)
# VH: B1 VH with S99D, S102K
# VL: B1 VL
# B11: 401.11.45 (antibody, name in Kabat numbering, V domains shown)
# VH: B1 VH with S99D, M100R
# VL: B1 VL
# B12: 401.11.63 (antibody, name in Kabat numbering, V domains shown)
# VH: B1 VH with S99D, S102L
# VL: B1 VL
# B13: 401.11.64 (antibody, name in Kabat numbering, V domains shown)
# VH: B1 VH with S99D, S102V
# VL: B1 VL
# B14: 401.11.122 (antibody, name in Kabat numbering, V domains shown)
# VH: B1 VH with S99D, G109K
# VL: B1 VL
# B15: 401.11.125 (antibody, name in Kabat numbering, V domains shown)
# VH: B1 VH with S99D, Y110F
# VL: B1 VL
# B16: 401.11.87 (antibody, name in Kabat numbering, V domains shown)
# VH: B1 VH with S99D, G105S
# VL: B1 VL
# B17: 401.11.116 (antibody, name in Kabat numbering, V domains shown)
# VH: B1 VH with S99D, D108F
# VL: B1 VL
# B18: 401.11.107 (antibody, name in Kabat numbering, V domains shown)
# VH: B1 VH with S99D, P107Y
# VL: B1 VL
# B19: 401.11.127 (antibody, name in Kabat numbering, V domains shown)
# VH: B1 VH with S99D, Y110Q
# VL: B1 VL
# B20: 401.11.90 (antibody, name in Kabat numbering, V domains shown)
# VH: B1 VH with S99D, G105K
# VL: B1 VL
# B21: 401.11.131 (antibody, name in Kabat numbering, V domains shown)
# VH: B1 VH with S99D, S113D
# VL: B1 VL
# B22: 401.11.132 (antibody, name in Kabat numbering, V domains shown)
# VH: B1 VH with S99D, S113T
# VL: B1 VL
# B23: 401.11.112 (antibody, name in Kabat numbering, V domains shown)
# VH: B1 VH with S99D, D108S
# VL: B1 VL
# B24: 401.11.135 (antibody, name in Kabat numbering, V domains shown)
# VH: B1 VH with S99D, S113V
# VL: B1 VL
# B25: 401.11.109 (antibody, name in Kabat numbering, V domains shown)
# VH: B1 VH with S99D, P107W
# VL: B1 VL
# B26: 401.11.117 (antibody, name in Kabat numbering, V domains shown)
# VH: B1 VH with S99D, D108Q
# VL: B1 VL
# B27: 401.11.101 (antibody, name in Kabat numbering, V domains shown)
# VH: B1 VH with S99D, P107S
# VL: B1 VL
# B28: 401.11.119 (antibody, name in Kabat numbering, V domains shown)
# VH: B1 VH with S99D, G109A
# VL: B1 VL
# B29: 401.11.103 (antibody, name in Kabat numbering, V domains shown)
# VH: B1 VH with S99D, P107G
# VL: B1 VL
# B30: 401.11.133 (antibody, name in Kabat numbering, V domains shown)
# VH: B1 VH with S99D, S113W
# VL: B1 VL
# B31: 401.11.123 (antibody, name in Kabat numbering, V domains shown)
# VH: B1 VH with S99D, G109R
# VL: B1 VL
# B32: 401.11.89 (antibody, name in Kabat numbering, V domains shown)
# VH: B1 VH with S99D, G105D
# VL: B1 VL
# B33: 401.11.126 (antibody, name in Kabat numbering, V domains shown)
# VH: B1 VH with S99D, Y110S
# VL: B1 VL
# B34: 401.11.124 (antibody, name in Kabat numbering, V domains shown)
# VH: B1 VH with S99D, Y110W
# VL: B1 VL
# B35: 401.11.102 (antibody, name in Kabat numbering, V domains shown)
# VH: B1 VH with S99D, P107T
# VL: B1 VL
# B36: 401.11.110 (antibody, name in Kabat numbering, V domains shown)
# VH: B1 VH with S99D, D108K
# VL: B1 VL
# B37: 401.11.118 (antibody, name in Kabat numbering, V domains shown)
# VH: B1 VH with S99D, G109S
# VL: B1 VL
# B38: 401.11.115 (antibody, name in Kabat numbering, V domains shown)
# VH: B1 VH with S99D, D108Y
# VL: B1 VL
# B39: 401.11.104 (antibody, name in Kabat numbering, V domains shown)
# VH: B1 VH with S99D, P107L
# VL: B1 VL
# B40: 401.11.137 (antibody, name in Kabat numbering, V domains shown)
# VH: B1 VH with S99D, S113R
# VL: B1 VL
# B41: 401.11.134 (antibody, name in Kabat numbering, V domains shown)
# VH: B1 VH with S99D, S113L
# VL: B1 VL
# B42: 401.11.111 (antibody, name in Kabat numbering, V domains shown)
# VH: B1 VH with S99D, D108R
# VL: B1 VL
# B43: 401.11.138 (antibody, name in Kabat numbering, V domains shown)
# VH: B1 VH with S99D, S113Y
# VL: B1 VL
# B44: 401.11.136 (antibody, name in Kabat numbering, V domains shown)
# VH: B1 VH with S99D, S113K
# VL: B1 VL
# B45: 401.11.88 (antibody, name in Kabat numbering, V domains shown)
# VH: B1 VH with S99D, G105A
# VL: B1 VL
# B46: 401.11.108 (antibody, name in Kabat numbering, V domains shown)
# VH: B1 VH with S99D, P107R
# VL: B1 VL
# B47: 401.11.139 (antibody, name in Kabat numbering, V domains shown)
# VH: B1 VH with S99D, S113G
# VL: B1 VL
# B48: 401.11.113 (antibody, name in Kabat numbering, V domains shown)
# VH: B1 VH with S99D, D108G
# VL: B1 VL
# Biological target: T1, Human CD1d/β2M (human, UniProt P15813 20-301; P61769 21-119)
# T1 construct: also called hCD1d; recombinant human CD1d
# Assay: SPR, transfection supernatant
binding result,Kd [nM],Binder
no binding,–,B1
–,0.187,B2
–,0.303,B3
–,0.242,B4
–,0.401,B5
–,1.17,B6
–,0.0485,B7
–,0.431,B8
–,0.156,B9
–,1.67,B10
–,0.249,B11
–,0.189,B12
–,0.23,B13

# Biological target: T1, Human CD1d/β2M
# Assay: SPR, transfection supernatant
# Remark: another data set of the same source
Kd [nM],binding result,Binder
0.13,–,B14
0.535,–,B15
7.13,–,B16
37.7,–,B17
0.996,–,B18
2.7,–,B19
< 0.01,–,B20
0.2,–,B21
0.569,–,B22
2.43,–,B23
0.421,–,B24
–,no binding,B25
1.33,–,B26
< 0.01,–,B27
0.877,–,B28
< 0.01,–,B29
0.167,–,B30
0.239,–,B31

Kd [nM],binding result,Binder
5.3,–,B32
0.0313,–,B33
1.38,–,B34
0.457,–,B35
0.247,–,B36
< 0.01,–,B37
0.667,–,B38
0.487,–,B39
0.938,–,B40
0.532,–,B41
< 0.01,–,B42
0.171,–,B43
< 0.01,–,B44
1.89,–,B45
< 0.01,–,B46
0.594,–,B47
0.679,–,B48
